Laboratory results published in the RNAGym collection of RNA variant scans (doi:10.1073/pnas.2313332121).

B1: TPR t1 (parent)
chain: GACCAAUCUGCCCUCAGAGCUCGAGAACAUCUUCGGAUGCAGAGGAGGCAGGCUUCGGUGGCGCGAUAGCGCCAACGUCCUCAACCUCCAAUGCAUCCCACCACAUGAUGAUGCCUGAAGAGCCUUGGUUUUUUG

Variants of: B1
Assay: polymerase ribozyme fitness, log enrichment relative to wild type (log ratio); higher = more active; in vitro selection for triplet polymerase activity
Summary of the method: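 Streptavidin-bead capture of gel-excised extended constructs, followed by RT-PCR, closed a single triplicate in vitro selection round. That round began by annealing PCR-built, transcribed mutant libraries of each subunit of a heterodimeric triplet polymerase ribozyme with a biotinylated primer, the partner subunit and triplets, then incubating them frozen at −7 °C. After Illumina sequencing of inputs and outputs, genotypes needed ≥10 input reads and ≥1 read per output. Fitness is the base-2 logarithm of genotype enrichment over wild-type enrichment, using inverse-variance-weighted replicate averages.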

Row | Variant | polymerase ribozyme fitness (log ratio)
1 | G10U C72A C124G | 1
2 | C13A A27U G47U | -3.3
3 | C15U G17U A91G C98U A111C | -6.3
4 | C13U A46U U54G A95U C123U | 1.11
5 | G48C G52C | -2.25
6 | U7G C70U A105G | -3.6
7 | C40G C49A G77A C115A | -2.4
8 | A6G C72U G93A | -0.751
9 | G44A U78G | -1.09
10 | U81C C115A G128C U131G | -4.42
11 | C22A G63A C94A A100U C115A | -5.85
12 | G77U C89U | -0.519
13 | C102A C124G | 0.0453
14 | G47U C49G C88A A95C C123A | -3.47
15 | C49A C70A C73U U87A | -3.37
16 | G39A G71U A83U | -1.37
17 | C13U G39C C88U C102U C104A G113A | -2.3
18 | U14A G127U | -3.57
19 | G60C G135A | -1.35
20 | A41U G61A C82G G120A U125G | -2.63
21 | C15U C94A | -2.56
22 | C34A G120C U130G | -3.21
23 | U9A U21A G45C C70A C82U U116G U132C G135C | -1.83
24 | U21A G51A G57U | -2.59

Row | Variant | polymerase ribozyme fitness (log ratio)
25 | A37U C56G C72A | -2.62
26 | A6U A91C | -1.21
27 | U30C A43U C56U G58U U112G | -6.19
28 | A18G C20U G39A A43G C49A A66U U78G | -6.02
29 | C64U U78A | -0.358
30 | G61C C94A U131G | -2.91
31 | C15G C22U | -5.53
32 | A2U U116A | -5.18
33 | C11U G42U | -2.17
34 | C28G U32C C101A | -3.79
35 | G69C G77A C88A G127A U129A | -5.53
36 | C53G A90C G117U | -3.56
37 | A37U G117A | -1.4
38 | G35A G117C | -6.51
39 | G60A C70A | -3.02
40 | G19C C86A | -2.92
41 | A29U G113C | -2.87
42 | U55C G63U | -1.09
43 | C94A A105C C114A A118U | -1.05
44 | U54C C97A | -5.83
45 | C72U A83U A90G C114G | -1.45
46 | G42C C88G C114G | -4.43
47 | C28G A37G G48A C104U C123A | -2.85
48 | G45A G51C | -5.06

Row | Variant | polymerase ribozyme fitness (log ratio)
49 | G39A C82A | -0.962
50 | A27G G39A C53A C85A C89A G113C | -5.16
51 | A5G U38G G39C | -3.2
52 | C34G A43G C53A A111C C123G | -6.97
53 | A6U U7A A16C A46U C76A A84C A100C C124A | -5.09
54 | U9C C22G C31G U38G A121U | -6.73
55 | A24G U55A U130A | -1.66
56 | C53G G69A C115A U116A | -5.69
57 | G23C C64U G120U U133A | -7.42
58 | C15U C115A | -1.57
59 | U54G C124U | 1.5
60 | C40U A74G | -0.128
61 | G60U U109G U125G U130G | -5.39
62 | G42U U54A A91U A121C C124A | 0.144
63 | A2G | -0.0197
64 | G45A A83C A84U A100G G122U C123G | -5.96
65 | C72A C89U U92G | -1.39
66 | G10A G60A C82A C94U C123A | 1.22
67 | C12U G61A | 0.126
68 | G63U C82A U126A | -3.13
69 | G93A C98A | -5.11
70 | C4U G60A | -0.911
71 | G23A C124A | -1.95
72 | G110A | -0.79

Row | Variant | polymerase ribozyme fitness (log ratio)
73 | U14A G122A | -1.5
74 | C56U U78C U106A G120A | 0.24
75 | C62U U112A | 1.02
76 | U7C A27G G63A | -1.53
77 | G52C C114U | -3.57
78 | A41U C124A | 0.11
79 | A43U U54A U112A | -0.639
80 | C53G G60A G61C A91C | -3.39
81 | U7G G36A A50C | -0.431
82 | C13U U109G | -4.64
83 | A5U A46C C53U U96G C102U | -4.66
84 | C8G A18C A37C C64G A90U U106A C123A U131A | -6.48
85 | C34G G61C C99A U112G U116G | -6.27
86 | C85G G110A | -3.38
87 | C8G C22A C62U U106A | -3.64
88 | A103G A118G C124G | -5.79
89 | U78C C80A | -1.94
90 | A2U C12G A95U | -2.91
91 | G48C G69A | -3.69
92 | C72U U81C U116A | -3.5
93 | G23A G36A | -5.32
94 | C53U G60A A83C U87C | -0.3
95 | C13A G44A | -2.95
96 | G35A U116C | -3.83

Row | Variant | polymerase ribozyme fitness (log ratio)
97 | G51U C101U G120U | -4.49
98 | C15U C99U | -3.99
99 | A18C G71A | -4.91
100 | U116G G117A | -1.82
101 | G51A G61U G128C | -5
102 | C15U A74C A75G C115A | -3.69
103 | A24C | -6.63
104 | G44U C53A C56A U67C A111C | -6.43
105 | C56G C85U A121U | 0.921
106 | C8G A29U | -1.15
107 | C62A G113A | -2.02
108 | C4G A5U C8U C101G C104U | -3.99
109 | U59C C97U C114G | -4.47
110 | A6U A50U A95C | -1.57
111 | C12G G39A C82G C114U | -3.7
112 | A68G C102A | -6.51
113 | C28G A37U G42U C56A U106A G113A C114G | -5.89
114 | G23U C53U | -5.67
115 | A16G G39U C53G | -2.41
116 | A43G C72G | -1.52
117 | U33C | -3.31
118 | A46G A74G U92C | -0.91
119 | U9C C99A C101U U132C | -6.34
120 | C56G A90C A121G | 1.01

Row | Variant | polymerase ribozyme fitness (log ratio)
121 | A95G C101A A111C | -1.91
122 | C11G A26U | -1.77
123 | G63A G110C | -5.57
124 | G10C G36U A50C U78G C86A | -4.45
125 | C53U G63A G113U | -5.15
126 | G39U G61U | 0.39
127 | A24C C49U C82U | -5.77
128 | G48A C123A G135A | 0.126
129 | C72U C124U | 0.818
130 | U21A C34A A37G C98G | -2.68
131 | A37U G48A A105U A111U | -6.33
132 | C115A A119G | -0.948
133 | C62U A121G U125C | -0.0117
134 | A5U A27G G44U A118U | -4.64
135 | C13U C28G | -1.58
136 | G10A C13A C64A U112A | -7.66
137 | C12U U96A | -0.734
138 | G63C U129A | -2.09
139 | G61A U81G | -3.89
140 | G10C C64U A121U U131A | 1.16
141 | C49U C70A | -2.47
142 | A37U A41G | -0.165
143 | G45A G69A U109G A118C | -6.05
144 | C8G C115U | -0.75

Row | Variant | polymerase ribozyme fitness (log ratio)
145 | C12U C53U C124U | 1.56
146 | A2U G19U C70U A121G | -4.27
147 | C70A C114U | -3.91
148 | C101A C115A A121C U125A | -0.732
149 | U9G C115U | -0.945
150 | C15A G48C G52C | -4.44
151 | A27U G52A C73A A91C U112A | -4.52
152 | C88A U106A G128U | -3.15
153 | A74G C86U U109A U126G | -5.87
154 | C72A C79G | -1.13
155 | G69U G135C | 1.06
156 | A2U C89A C115A | -3.43
157 | A6U C8G C13A G19U G61C G93C G120C | -5.97
158 | C34G G61A | -5.85
159 | U9G A66C C104U | -0.809
160 | U7G G52A C85A U87G | -1.55
161 | A27G U38A C73U A83C | -3.53
162 | C11A C12U G57U U87G G93A C102A | -4.56
163 | A2C C72A C114G | -4.02
164 | C4G A91C G120U | -1.84
165 | C8A C13U C20A C40A C49A A111G G117A U130C | -5.75
166 | C70A C72U C101A | -2.45
167 | G60C A100U C114A | -3.1
